# According to PMC2921341, “Interaction of Serum- and Glucocorticoid Regulated Kinase 1 (SGK1) with the WW-Domains of Nedd4-2 Is Required for Epithelial Sodium Channel Regulation” (PLoS ONE, 2010):
# Experiments:
# ENaC = assay: Amiloride-sensitive short circuit current in FRT epithelia with ENaC: Nedd4-2 dose response with SGK, SGKY298A or GFP; format: cell-based; settings: FRT epithelia with α-, β-, γENaC, increasing amounts of Nedd4-2 (0–0.2 µg), no SGK; amiloride 10 µM; n = 18
# Method: To test the hypothesis that the interaction of the Nedd4-2 WW-domains with the SGK PY motif is required for SGK to influence Nedd4-2 function, we co-expressed α-, β- and γENaC in FRT epithelia with either wild type SGK or SGKY298A along with increasing amounts of Nedd4-2, and measured the amiloride-sensitive short circuit current.
# Figure 4 The SGK PY motif is necessary for SGK to inhibit Nedd4-2. Amiloride-sensitive short-circuit sodium current (relative to 0 µg of Nedd4-2) in FRT cells 48 hr after transfection with α-, β- and γENaC and SGK (closed circles) or SGKY298A (open circles) or GFP (closed squares), in the presence of increasing amounts of Nedd4-2, n = 18. Nedd4-2 is expressed as a fraction of the amount of ENaC cDNA. Expression of SGK and SGKY298A was reported in Figure 1B of Snyder et al..
# Fischer rat thyroid (FRT) cells were grown on permeable filter supports (Snapwell™, Corning USA or Millicell PCF, both with […] pore size, 12 mm diameter) in F-12 Coon's media with 5% fetal calf serum (Sigma), 100 U/ml penicillin, and 100 µg/ml streptomycin at 37°C. One day after seeding, cells were cotransfected with α-, β- and γENaC (0.07 µg each), 0.6 µg wildtype or mutant SGK, and 0–0.2 µg Nedd4-2 (Fig. 4 only). Total DNA was held constant (1 µg/millicell) using cloning vector DNA. The plasmids were mixed with Lipofectamine 2000 (Invitrogen) or TFX 50 (Promega, Madison, WI; 7.9 µg/millicell) in serum free F12 Coon's media for 15 minutes and transferred to the apical surface of the monolayer. One-six hours later, the apical media was replaced with F-12 Coon's media containing 5% fetal calf serum and amiloride (10 µM). Short-circuit current was measured […] after transfection in modified Ussing chambers connected to a voltage clamp (South Campus Electronics, Dunedin, New Zealand or Warner Instruments). The apical and basolateral surfaces were bathed in (in mM) 135 NaCl, 1.2 CaCl2, 1.2 MgCl2, 2.4 K2HPO4, 0.6 KH2PO4, 10 HEPES, pH 7.4, at 37°C and bubbled with O2. Amiloride-sensitive short-circuit current (Isc-amiloride) was determined as the difference in current with and without amiloride (10 µM) in the apical bathing solution. Data are presented as relative Isc-amiloride (Isc-amiloride relative) that was obtained by normalizing the Isc-amiloride to that of control cells transfected with αβγENaC in the same experiment. Transepithelial resistance (Rt) was monitored by applying repetitive voltage potential pulses (5 mV for 1 sec at 120 sec intervals) across the epithelium.
# SGK = assay: Co-immunoprecipitation of Nedd4-2 with SGK in COS7 cells; format: binding, human; settings: Nedd4-2-FLAG and SGK-HA, IP anti-HA, blot anti-FLAG, data not shown
# Method: Co-immunoprecipitation was used to characterize an in vitro interaction between Nedd4-2 and SGK. Nedd4-2-FLAG and SGK-HA were co-expressed in COS7 cells, SGK was immunoprecipitated with anti-HA, and the presence of Nedd4-2 in the immunoprecipitates was assessed by western blotting with anti-FLAG. […] We reasoned that SGK would be rapidly turned over in the cells, and this would be enhanced by overexpression of active Nedd4-2, since Nedd4-2 is known to induce degradation of SGK [23]. Therefore we co-expressed a stable form of SGK (ΔN60SGK-HA, lacking the first 60 amino acids of SGK), together with a ligase-dead form of Nedd4-2 (Nedd4-2C821A–FLAG).
# (A) ΔN60SGK-HA and Nedd4-2C821A–FLAG were transiently co-expressed, or expressed alone as indicated, in COS7 cells. Complexes were immunoprecipitated with anti-HA antibody. Immunoprecipitates were analyzed by 10% SDS-PAGE and sequential western blotting (IB) with anti-FLAG antibody (Nedd4-2) and anti-HA antibody (ΔN60SGK). Expression of the proteins (5% input) is shown in the bottom panel, n = 3. Either ΔN60SGK-HA (B, E) or SGK-FLAG (C, D) was transiently expressed in COS7 cells. […] Bound SGK was analyzed by immunostaining with anti-FLAG/HA antibody. […]
# COS7 cells were co-transfected with ΔN60SGK-HA and Nedd4-2C821A-FLAG. […] The beads were washed four times in T-TBS and analysed by SDS-PAGE and Western blotting with anti-FLAG (Sigma).
molecule,measurement,setting,value
"Nedd4-2: ubiquitin ligase, Nedd4-family member, human (protein, left off: FLAG, C-terminal, kept, ubiquitin ligase, Nedd4-family member, human) MERPYTFKDFLLRPRSHKSRVKGFLRLKMAYMPKNGGQDEENSDQRDDMEHGWEVVDSNDSASQHQEELPPPPLPPGWEEKVDNLGRTYYVNHNNRTTQWHRPSLMDVSSESDNNIRQINQEAAHRRFRSRRHISEDLEPEPSEGGDVPEPWETISEEVNIAGDSLGLALPPPPASPGSRTSPQELSEELSRRLQITPDSNGEQFSSLIQREPSSRLRSCSVTDAVAEQGHLPPPSAPAGRARSSTVTGGEEPTPSVAYVHTTPGLPSGWEERKDAKGRTYYVNHNNRTTTWTRPIMQLAEDGASGSATNSNNHLIEPQIRRPRSLSSPTVTLSAPLEGAKDSPVRRAVKDTLSNPQSPQPSPYNSPKPQHKVTQSFLPPGWEMRIAPNGRPFFIDHNTKTTTWEDPRLKFPVHMRSKTSLNPNDLGPLPPGWEERIHLDGRTFYIDHNSKITQWEDPRLQNPAITGPAVPYSREFKQKYDYFRKKLKKPADIPNRFEMKLHRNNIFEESYRRIMSVKRPDVLKARLWIEFESEKGLDYGGVAREWFFLLSKEMFNPYYGLFEYSATDNYTLQINPNSGLCNEDHLSYFTFIGRVAGLAVFHGKLLDGFFIRPFYKMMLGKQITLNDMESVDSEYYNSLKWILENDPTELDLMFCIDEENFGQTYQVDLKPNGSEIMVTNENKREYIDLVIQWRFVNRVQKQMNAFLEGFTELLPIDLIKIFDENELELLMCGLGDVDVNDWRQHSIYKNGYCPNHPVIQWFWKAVLLMDAEKRIRLLQFVTGTSRVPMNGFAELYGSNGPQLFTIEQWGSPEKLPRAHTCFNRLDLPPYETFEDLREKLLMAVENAQGFEGVD",inhibition of ENaC by Nedd4-2 in the absence of SGK (in words),ENaC,inhibited ENaC in a dose-dependent manner
same,co-immunoprecipitation with SGK (in words),SGK,co-precipitated with SGK but the amount of Nedd4-2 co-precipitated was small
